Series [1] can be described thus: 14C-saccharose uptake tests in yeast expressing SUT4 (SUSY7/ura3). The format is cell-based. Conditions: for Km: Michaelis-Menten nonlinear regression. As for the experimental part:
(§1) The yeast strain SUSY7/ura3 is a modified version of SUSY7 (Riesmeier et al., EMBO J. (1992) 11, 4705-4713), which contains a deletion of a portion of the URA3 gene and, as a result, permits selection for uracil auxotrophy. Media that contained the 1.7 g/L yeast nitrogen base without amino acids (Difco), 2% saccharose, 20 mg/L tryptophane, and 1.5% agarose, pH 5.0, were used to analyze yeast growth on a saccharose medium.
(§2) For the saccharose uptake tests, yeast was cultivated in a liquid minimal medium containing glucose, up to an OD623 of approximately 0.8. Cells were collected by means of centrifugation, washed in 25 mM sodium phosphate buffer (pH 5.5), and suspended in the same buffer at an OD623 of 20. The uptake tests were initiated by adding glucose ending at a final concentration of 10 mM to the yeast cells one minute before adding ^14C-saccharose. Following incubation at 30° C. while stirring, cells were collected by means of vacuum filtration on fiberglass filters (1-5 minutes), washed twice with 4 mL 10 mM saccharose (at the freezing point), and the radioactivity was determined using a liquid scintillation counter. […] A significant difference compared with the vector controls is apparent.
Data for the kinetic analysis were obtained for SUT4 from a nonlinear regression of the uptake measurements using the Michaelis-Menten equation. Km was represented as an average of eight determinations using three independent transformants±standard deviation. The KM value for saccharose that was determined was 11.6±0.6 mM (at a pH of 5.5) and 5.9±0.8 mM (at a pH of 4.0) for SUT4 from arabidopsis. For SUT4 from Solanum tuberosum the KM value was 6.0±1.2 mM (pH 4.0) (see FIG. 5B).

Series [2] is described as follows: yeast growth on a saccharose medium (SUSY7/ura3). The format is cell-based. Conditions: 2% saccharose medium, pH 5.0. As for the experimental part:
as §1, §2

B1: AtSUT4: saccharose transporter SUT4 from Arabidopsis thaliana, amino acid sequence SEQ ID no. 5 (protein, listed as Arabidopsis thaliana)
chain: MATSDQDRRHRATRNRPPIPRPSNSSSRPVVPPPRSKVSKRVLLRVASVACGIQFGWALQLSLLTPYVQELGIPHAWASVIWLCGPLSGLFVQPLVGHSSDRCTSKYGRRRPFIVAGAVAISISVMVIGHAADIGWAFGDREGKIKPRAIVAFVLGFWILDVANNMTQGPCRALLADLTENDNRRTRVANGYFSLFMAVGNVLGYATGSYNGWYKIFTFTKTVACNVECANLKSAFYIDVVFIAITTILSVSAAHEVPLASLTSEAHGQTSGTDEAFLSEIFGTFRYFPGNVWIILLVTALTWIGWFPFILFDTDWMGREIYGGEPNIGTSYSAGVSMGALGLMLNSVFLGITSVLMEKLCRKWGAGFVWGISNILMAICFLGMIITSFVASHLGYIGHEQPPASIVFAAVLIFTILGIPLAITYSVPYALISIRIESLGLGQGLSLGVLNLAIVIPQVIVSVGSGPWDQLFGGGNSPALAVGAATGFIGGIVAILALPRTRIQKPIPLP
For B1, the “functional saccharose transporter (uptake of 14C-saccharose vs vector controls)” value in series [1] (FIG. 5A) is given as “functional saccharose transporters”. Moreover, the Km (as a rule, the concentration of substrate that gives half-maximal velocity) in series [1] (pH 4.0, average ± standard deviation) stood at 5.9 ± 0.8 mM; in series [1] (pH of 5.5, average of eight determinations ± standard deviation) it was 11.6 ± 0.6 mM. Further, the “yeast growth on saccharose” value in series [2] is on record as “permitted yeast to grow on saccharose”.
